Columns and labels:
[1] = E3-STn allograft model, complete blood count (CBC); format: in vivo, mouse; parameters: Red blood cells / White blood cells: unit not given here; settings: CBC at end of study, antibody-treated mice
Protocol: At the end of the study, a complete blood count (CBC) was obtained for 5 mice treated with antibody as well as 3 mice treated with vehicle control. Blood was collected from all mice via terminal cardiac puncture and processed for plasma. Blood was placed in EDTA microtainer tubes (BD & Co., Franklin Lakes, N.J.) then centrifuged. Plasma layers were then removed and snap frozen in cryo vials (Thermo-Fisher Scientific, Rochester, N.Y.) and stored at −80° C. until analysis. Analysis was carried out to look for levels of a variety of factors.

[2] = system: E3-STn cells; assay: E3-STn transfected murine breast tumor allograft model, tumor volume; format: in vivo, mouse; settings: 7G9-1A8 25 mg/kg ip twice weekly 3 weeks, Paclitaxel daily 5 days
Protocol: 3 test articles were evaluated during the study.
Standard deviation values are listed in parenthesis.

[3] = Pathological evaluation of organs (H&E); format: in vivo, mouse
Protocol: At the end of the study described in Example 22, three mice from the vehicle control group and five mice that received 7G9-1A8 were chosen at random for post-study pathology assessment. Brain, colon, intestine, heart, kidney, liver, lung, mandibular salivary gland, pancreas, spleen, stomach, adrenal gland and thyroid gland organs were collected from each mouse. The organs were fixed in formalin (VWR; Radnor, Pa.) for about 48 hours, transferred to 70% ethanol (Sigma-Aldrich; St. Louis, Mo.), and then processed for standard H&E staining.
The H&E stained tissue slides were examined for pathology review. Liver sections from each animal had multifocal inflammation with or without concomitant hepatocellular necrosis. The histo-pathological changes were minimal to mild in severity. There was no appreciable difference in the morphology of lesions among vehicle control group mice and mice that received 7G9-1A8.

[4] = mouse, in vivo

B1: 7G9-1A8: 7G9-1A8 IgG2b κ antibody; heavy chain variable domain SEQ ID NO 12, light chain SEQ ID NO 9 (antibody, V domains shown)
VH: QVQLKESGPGLVAPSQNLSITCTVSGFSLTSYGVNWVRQPPGKGLEWLGVIWGDGSTNYHSALISRLIISKENSKSQVFLKLNSLQTNDTATYYCTKGFVYWGQGTLVTVSA
VL: QIVLTQSPAIMSASPGEKVTMTCSASSSVSYMHWYQQKSGTSPKRWIFDTSKLASGVPARFSGSGSGTSYSLTISSMEAEDAATYYCQQWSSNLLTFGAGTKLELK
- % Lymphocytes [1]: 44.4%
- % Monocytes [1]: 4.6%
- % Neutrophils (Segmented) [1]: 51.0%
- Hematocrit [1]: 46.9%
- Hemoglobin [1]: 16.0 g/dL
- Lymphocytes [1]: 5.6 10^9/L
- Mean Corpuscular Hemoglobin [1]: 16.2 pg
- Mean Corpuscular Hemoglobin Concentration [1]: 34.2 g/dL
- Mean Corpuscular Volume [1]: 47.4 fL
- Mean platelet volume [1]: 7.4 fL
- Monocytes [1]: 0.7 10^9/L
- Neutrophils [1]: 7.6 10^9/L
- Platelet Cell Distribution Width [1]: 32.2%
- Platelet count [1]: 712.2 10^3
- Red Cell Distribution Width [1]: 19.0%
- Red blood cells [1]: 9.9
- White blood cells ([1]; blood by terminal cardiac puncture): 13.9
- Average Tumor Volume ([2]; day 1 of treatment): 112.4 mm^3
- Average Tumor Volume ([2]; day 4 of treatment): 148.7 mm^3
- Average Tumor Volume ([2]; day 6 of treatment): 161.9 mm^3
- Average Tumor Volume ([2]; day 8 of treatment): 152.8 mm^3
- Average Tumor Volume ([2]; day 11 of treatment): 136.3 mm^3
- Average Tumor Volume ([2]; day 13 of treatment): 118.4 mm^3
- Average Tumor Volume ([2]; day 15 of treatment): 105.1 mm^3
- Average Tumor Volume ([2]; day 18 of treatment): 99.5 mm^3
- Average Tumor Volume ([2]; day 20 of treatment): 91.7 mm^3
- Average Tumor Volume ([2]; day 22): 105.2 mm^3
- Average Tumor Volume ([2]; day 26): 102.8 mm^3
- Average Tumor Volume ([2]; day 27): 107.4 mm^3
- Average Tumor Volume ([2]; day 29): 147.1 mm^3
- Average Tumor Volume ([2]; day 32): 160.6 mm^3
- Average Tumor Volume ([2]; day 34): 164.7 mm^3
- Average Tumor Volume ([2]; day 36): 212.1 mm^3
- Average Tumor Volume ([2]; day 39): 206.6 mm^3
- Average Tumor Volume ([2]; day 41): 235.3 mm^3
- liver histo-pathology vs vehicle control group ([3]; 5 treated, 3 vehicle mice): no significant difference between the groups
- neutrophil aggregation in the muscularis mucosa of the stomach ([3]; seen in two vehicle control mice): not observed
- weight gain over the course of treatment as compared to vehicle control [4]: higher percent gain in weight
